One block for each substance: values may come before it.
Key:
[1] = molecular target: hCD63.mmh (human) (UniProt P08962); assay: SPR (Biacore) kinetics, mAb captured, hCD63.mmh as analyte
[2] = molecular target: hAPLP2.mmh (human) (UniProt Q06481); assay: SPR (Biacore) kinetics, mAb captured, hAPLP2.mmh as analyte
[3] = molecular target: hFGFR3b.mmh (human) (UniProt P22607); assay: SPR (Biacore) kinetics, mAb captured, hFGFR3b.mmh as analyte
[4] = molecular target: human FGFR1c and human KLB co-expressed on HEK293 cells (human) (UniProt P11362); assay: cell-based or functional assay
[5] = molecular target: hFGFR1c_V5_6×His (human) (UniProt P11362); assay: SPR (Biacore), antibody captured on anti-human Fc (REGN2567) CM5 chip, hFGFR1c_V5_6xHis injected, 25 C, 1:1 fit
[6] = molecular target: hKLB.HA.6×His (human) (UniProt Q86Z14); assay: SPR (Biacore), antibody captured on anti-human Fc (REGN2567) CM5 chip, hKLB.HA.6xHis injected, 25 C, 1:1 fit

Sequence of UniProt P11362 (P11362 22-376): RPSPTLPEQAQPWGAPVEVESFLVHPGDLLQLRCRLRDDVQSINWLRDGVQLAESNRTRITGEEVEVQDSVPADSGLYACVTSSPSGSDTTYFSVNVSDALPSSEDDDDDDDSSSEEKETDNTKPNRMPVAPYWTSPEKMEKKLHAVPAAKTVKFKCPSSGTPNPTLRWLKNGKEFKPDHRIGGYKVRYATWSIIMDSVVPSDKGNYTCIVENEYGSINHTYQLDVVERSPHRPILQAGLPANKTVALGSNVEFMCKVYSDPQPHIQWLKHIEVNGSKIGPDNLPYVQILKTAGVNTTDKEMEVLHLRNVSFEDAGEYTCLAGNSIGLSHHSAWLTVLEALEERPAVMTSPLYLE

100 nM Antigen Bound (RU) [1]: 0.5 RU
100 nM Antigen Bound (RU) [2]: -0.5 RU
100 nM Antigen Bound (RU) [3]: 1.8 RU
Substance: REGN1945 (antibody)

% Act, SRE-luciferase reporter [4]: 42%
agonist activity relative to hFGF21, SRE-luciferase reporter [4]: 30%
Substance: REGN4304 (bispecific antibody)

100 nM Antigen Bound (RU) [5]: 50 RU
Kd [5]: 539 nM
koff [5]: 0.0247 s⁻¹
kon [5]: 45900 M⁻¹ s⁻¹
% activation normalized against soluble FGF21, SRE-luciferase reporter [4]: 19%
agonist activity relative to hFGF21, SRE-luciferase reporter [4]: 30%
100 nM Antigen Bound (RU) [6]: 411 RU
Kd [6]: 25.5 nM
koff [6]: 0.0122 s⁻¹
kon [6]: 476000 M⁻¹ s⁻¹
Substance: REGN4366 (bispecific antibody)

% Act, SRE-luciferase reporter [4]: 100%
% Activity of (FGF21), SRE-luciferase reporter [4]: 100%
EC50 (M), SRE-luciferase reporter [4]: 3.4e-09 M
Substance: Recombinant human FGF21 with 6×His tag (from UniProt Q9NSA1 29-209) (ligand)

— US20210130477A1
